Experiments:
Experiment in all cases: two-hybrid library CCmax;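 also: natural log of median RNA to DNA barcode read ratio; higher means stronger binding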
[1] = molecular target: T1, APC2724-AA
T1 chain: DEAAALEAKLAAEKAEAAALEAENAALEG

[2] = molecular target: T2, APC2811-AA; conditions: mean of both orientations
T2 chain: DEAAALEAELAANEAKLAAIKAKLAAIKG

[3] = molecular target: T3, APC2981-AA; conditions: mean of both orientations
T3 chain: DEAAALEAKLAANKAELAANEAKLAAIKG

[4] = molecular target: T4, APC3265-AA; conditions: mean of both orientations
T4 chain: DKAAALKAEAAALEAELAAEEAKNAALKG

[5] = molecular target: T5, APC3323-AA; conditions: mean of both orientations
T5 chain: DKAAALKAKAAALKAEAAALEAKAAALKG

[6] = molecular target: T6, APC3354-AA; conditions: mean of both orientations
T6 chain: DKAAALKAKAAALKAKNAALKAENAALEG

[7] = molecular target: T7, APC3881-AA; conditions: mean of both orientations
T7 chain: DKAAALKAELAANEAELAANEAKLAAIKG

[8] = molecular target: T8, APC4100-AA
T8 chain: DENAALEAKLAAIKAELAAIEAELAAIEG

[9] = molecular target: T9, APC4336-AA; conditions: mean of both orientations
T9 chain: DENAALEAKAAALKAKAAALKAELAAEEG

[10] = molecular target: T10, APC5009-AA; conditions: mean of both orientations
T10 chain: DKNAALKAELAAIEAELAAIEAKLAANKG

[11] = molecular target: T11, APC542-AA; conditions: mean of both orientations
T11 chain: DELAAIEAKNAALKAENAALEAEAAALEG

[12] = molecular target: T12, APC5531-AA; conditions: mean of both orientations
T12 chain: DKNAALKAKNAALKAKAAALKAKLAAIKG

[13] = molecular target: T13, APC6088-AA; conditions: mean of both orientations
T13 chain: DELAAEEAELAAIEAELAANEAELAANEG

[14] = molecular target: T14, APC7524-AA; conditions: mean of both orientations
T14 chain: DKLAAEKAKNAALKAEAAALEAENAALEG

[15] = molecular target: T15, APC8401-AA; conditions: mean of both orientations
T15 chain: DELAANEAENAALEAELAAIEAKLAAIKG

[16] = molecular target: T16, APC8516-AA; conditions: mean of both orientations
T16 chain: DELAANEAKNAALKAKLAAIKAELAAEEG

[17] = molecular target: T17, APC9141-AA; conditions: mean of both orientations
T17 chain: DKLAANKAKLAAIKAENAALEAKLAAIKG

[18] = molecular target: T18, APC9182-AA; conditions: mean of both orientations
T18 chain: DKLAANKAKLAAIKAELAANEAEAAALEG

[19] = molecular target: T19, APC9291-AA; conditions: mean of both orientations
T19 chain: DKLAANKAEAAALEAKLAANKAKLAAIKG

[20] = molecular target: T20, APC9806-AA; conditions: mean of both orientations
T20 chain: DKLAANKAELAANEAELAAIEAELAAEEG

[21] = molecular target: T21, 4H1867-AA
T21 chain: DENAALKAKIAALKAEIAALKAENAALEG

[22] = molecular target: T22, 4H2078-AA; conditions: mean of both orientations
T22 chain: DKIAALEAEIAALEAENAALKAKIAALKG

[23] = molecular target: T23, 4H2151-AA; conditions: mean of both orientations
T23 chain: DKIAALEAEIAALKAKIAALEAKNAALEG

[24] = molecular target: T24, 4H2165-AA; conditions: mean of both orientations
T24 chain: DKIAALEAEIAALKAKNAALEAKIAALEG

[25] = molecular target: T25, 4H2190-AA; conditions: mean of both orientations
T25 chain: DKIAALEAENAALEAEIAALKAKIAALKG

[26] = molecular target: T26, 4H2277-AA; conditions: mean of both orientations
T26 chain: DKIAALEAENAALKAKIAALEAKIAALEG

[27] = molecular target: T27, 4H234-AA; conditions: mean of both orientations
T27 chain: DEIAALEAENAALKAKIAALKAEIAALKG

[28] = molecular target: T28, 4H2354-AA; conditions: mean of both orientations
T28 chain: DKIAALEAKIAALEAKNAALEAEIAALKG

[29] = molecular target: T29, 4H2393-AA; conditions: mean of both orientations
T29 chain: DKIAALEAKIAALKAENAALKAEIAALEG

[30] = molecular target: T30, 4H2466-AA; conditions: mean of both orientations
T30 chain: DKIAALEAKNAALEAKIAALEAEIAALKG

[31] = molecular target: T31, 4H2505-AA; conditions: mean of both orientations
T31 chain: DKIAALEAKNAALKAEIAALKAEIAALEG

[32] = molecular target: T32, 4H2575-AA; conditions: mean of both orientations
T32 chain: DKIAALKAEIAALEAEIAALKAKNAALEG

[33] = molecular target: T33, 4H2617-AA; conditions: mean of both orientations
T33 chain: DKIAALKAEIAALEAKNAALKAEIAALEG

[34] = molecular target: T34, 4H2642-AA
T34 chain: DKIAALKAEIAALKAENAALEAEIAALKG

[35] = molecular target: T35, 4H2729-AA; conditions: mean of both orientations
T35 chain: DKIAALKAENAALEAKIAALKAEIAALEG

[36] = molecular target: T36, 4H2754-AA; conditions: mean of both orientations
T36 chain: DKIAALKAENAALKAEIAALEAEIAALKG

[37] = molecular target: T37, 4H2837-AA; conditions: mean of both orientations
T37 chain: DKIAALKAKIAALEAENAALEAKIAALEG

[38] = molecular target: T38, 4H2883-AA; conditions: mean of both orientations
T38 chain: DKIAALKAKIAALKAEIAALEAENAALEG

[39] = molecular target: T39, 4H2944-AA; conditions: mean of both orientations
T39 chain: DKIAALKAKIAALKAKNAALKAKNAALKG

[40] = molecular target: T40, 4H2949-AA; conditions: mean of both orientations
T40 chain: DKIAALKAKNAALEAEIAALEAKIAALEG

[41] = molecular target: T41, 4H3112-AA; conditions: mean of both orientations
T41 chain: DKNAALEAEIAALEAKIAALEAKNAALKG

[42] = molecular target: T42, 4H317-AA; conditions: mean of both orientations
T42 chain: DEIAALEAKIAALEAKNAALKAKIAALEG

[43] = molecular target: T43, 4H3343-AA; conditions: mean of both orientations
T43 chain: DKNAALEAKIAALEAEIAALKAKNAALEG

[44] = molecular target: T44, 4H335-AA; conditions: mean of both orientations
T44 chain: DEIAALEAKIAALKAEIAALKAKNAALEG

[45] = molecular target: T45, 4H342-AA; conditions: mean of both orientations
T45 chain: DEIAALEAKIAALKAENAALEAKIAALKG

[46] = molecular target: T46, 4H3427-AA; conditions: mean of both orientations
T46 chain: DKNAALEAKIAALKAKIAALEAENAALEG

[47] = molecular target: T47, 4H3606-AA; conditions: mean of both orientations
T47 chain: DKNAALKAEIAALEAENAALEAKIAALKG

[48] = molecular target: T48, 4H3627-AA; conditions: mean of both orientations
T48 chain: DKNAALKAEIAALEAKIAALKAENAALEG

[49] = molecular target: T49, 4H3655-AA; conditions: mean of both orientations
T49 chain: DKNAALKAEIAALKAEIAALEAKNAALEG

[50] = molecular target: T50, 4H3844-AA; conditions: mean of both orientations
T50 chain: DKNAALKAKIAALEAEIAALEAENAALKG

[51] = molecular target: T51, 4H3921-AA; conditions: mean of both orientations
T51 chain: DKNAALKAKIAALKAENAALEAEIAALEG

[52] = molecular target: T52, 4H429-AA; conditions: mean of both orientations
T52 chain: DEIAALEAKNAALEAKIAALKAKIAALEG

[53] = molecular target: T53, 4H454-AA; conditions: mean of both orientations
T53 chain: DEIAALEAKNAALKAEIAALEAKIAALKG

[54] = molecular target: T54, 4H48-AA; conditions: mean of both orientations
T54 chain: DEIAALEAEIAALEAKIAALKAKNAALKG

[55] = molecular target: T55, 4H566-AA; conditions: mean of both orientations
T55 chain: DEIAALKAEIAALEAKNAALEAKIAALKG

[56] = molecular target: T56, 4H605-AA; conditions: mean of both orientations
T56 chain: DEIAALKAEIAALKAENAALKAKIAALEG

[57] = molecular target: T57, 4H678-AA; conditions: mean of both orientations
T57 chain: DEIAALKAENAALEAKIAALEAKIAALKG

[58] = molecular target: T58, 4H717-AA; conditions: mean of both orientations
T58 chain: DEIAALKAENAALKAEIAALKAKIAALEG

[59] = molecular target: T59, 4H780-AA; conditions: mean of both orientations
T59 chain: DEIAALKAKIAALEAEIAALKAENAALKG

[60] = molecular target: T60, 4H794-AA; conditions: mean of both orientations
T60 chain: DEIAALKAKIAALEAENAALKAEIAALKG

[61] = molecular target: T61, 4H881-AA; conditions: mean of both orientations
T61 chain: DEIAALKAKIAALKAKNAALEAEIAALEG

[62] = molecular target: T62, 4H906-AA; conditions: mean of both orientations
T62 chain: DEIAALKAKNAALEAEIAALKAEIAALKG

[63] = molecular target: T63, 4H993-AA; conditions: mean of both orientations
T63 chain: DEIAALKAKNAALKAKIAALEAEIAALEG

B1: APC2724-AA (peptide)
chain: DEAAALEAKLAAEKAEAAALEAENAALEG
interaction score [1]: -1.55 | interaction score [2]: -1.76 | interaction score [3]: -1.68 | interaction score [4]: -1.62 | interaction score [5]: -1.8 | interaction score [6]: -1.48 | interaction score [7]: -2.62 | interaction score [8]: -1.68 | interaction score [9]: -2.23 | interaction score [10]: -1.67 | interaction score [11]: -1.75 | interaction score [12]: -1.53 | interaction score [13]: -1.76 | interaction score [14]: -1.54 | interaction score [15]: -1.54 | interaction score [16]: -1.9 | interaction score [17]: -3.52 | interaction score [18]: -1.95 | interaction score [19]: -1.76 | interaction score [20]: -1.79

B2: 4H1867-AA (peptide)
chain: DENAALKAKIAALKAEIAALKAENAALEG
interaction score [21]: 0.169 | interaction score [22]: -0.776 | interaction score [23]: -1.27 | interaction score [24]: -1.77 | interaction score [25]: -0.428 | interaction score [26]: -1.23 | interaction score [27]: -0.943 | interaction score [28]: -1.35 | interaction score [29]: -1.58 | interaction score [30]: -1.6 | interaction score [31]: -1.62 | interaction score [32]: 1.63 | interaction score [33]: -1.4 | interaction score [34]: -2.13 | interaction score [35]: -1.46 | interaction score [36]: 1.11 | interaction score [37]: -1.19 | interaction score [38]: -0.898 | interaction score [39]: -0.512 | interaction score [40]: -1.06 | interaction score [41]: 0.579 | interaction score [42]: -1.01 | interaction score [43]: 0.12 | interaction score [44]: -0.988 | interaction score [45]: -0.881 | interaction score [46]: -1.26 | interaction score [47]: -1.11 | interaction score [48]: 0.353 | interaction score [49]: -0.0304 | interaction score [50]: 1.01 | interaction score [51]: -1.88 | interaction score [52]: -1.51 | interaction score [53]: -0.172 | interaction score [54]: 1.5 | interaction score [55]: -1.59 | interaction score [56]: -1.5 | interaction score [57]: -1.03 | interaction score [58]: -1.28 | interaction score [59]: -0.525 | interaction score [60]: -1.4 | interaction score [61]: -1.8 | interaction score [62]: -1.71 | interaction score [63]: -1.05
